For one assay, the target named is rat CCKB receptor (rat) (UniProt P30553). Put plainly: cell-based or functional assay.
Assay [1] concerns the target human GRF receptor (human) (UniProt Q02643). Put plainly: cell-based or functional assay.
Assay [2] deals with yeast Gβγ (Saccharomyces cerevisiae) (UniProt P18851). Put plainly: cell-based or functional assay.
Assay [3] has as its target T1, rat SSTR2 somatostatin receptor subtype (rat, UniProt P30680 1-369).
T1 construct: whole, on cells; Tested in yeast cells or crude yeast membranes; also called somatostatin receptor subtype 2
Description: radioligand saturation binding, yeast membranes coexpressing Scg1/Gαi2.

A word on the Kd: it is the equilibrium constant for the complex coming apart.

Positions of bridges follow the written chain, without caps; N, C: chain ends. No end group written: not given here. *: point of attachment. 125I = [125I]*

Sequence of rat CCKB receptor (rat) (P30553 whole entry): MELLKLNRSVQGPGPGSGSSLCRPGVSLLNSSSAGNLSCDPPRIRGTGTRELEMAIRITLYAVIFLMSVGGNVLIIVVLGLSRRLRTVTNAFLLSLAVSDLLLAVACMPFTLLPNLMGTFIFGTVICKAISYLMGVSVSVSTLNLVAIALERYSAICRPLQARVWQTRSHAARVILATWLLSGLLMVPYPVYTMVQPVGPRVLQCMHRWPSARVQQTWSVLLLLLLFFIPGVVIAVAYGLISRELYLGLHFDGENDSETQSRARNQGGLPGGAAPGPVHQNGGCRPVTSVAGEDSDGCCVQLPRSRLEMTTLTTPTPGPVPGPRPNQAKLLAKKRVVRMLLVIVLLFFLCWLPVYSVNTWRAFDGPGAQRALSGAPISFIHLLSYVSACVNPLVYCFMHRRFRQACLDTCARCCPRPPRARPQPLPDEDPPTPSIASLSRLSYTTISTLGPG
Sequence of yeast Gβγ (Saccharomyces cerevisiae) (P18851 whole entry, chain 1 of 2): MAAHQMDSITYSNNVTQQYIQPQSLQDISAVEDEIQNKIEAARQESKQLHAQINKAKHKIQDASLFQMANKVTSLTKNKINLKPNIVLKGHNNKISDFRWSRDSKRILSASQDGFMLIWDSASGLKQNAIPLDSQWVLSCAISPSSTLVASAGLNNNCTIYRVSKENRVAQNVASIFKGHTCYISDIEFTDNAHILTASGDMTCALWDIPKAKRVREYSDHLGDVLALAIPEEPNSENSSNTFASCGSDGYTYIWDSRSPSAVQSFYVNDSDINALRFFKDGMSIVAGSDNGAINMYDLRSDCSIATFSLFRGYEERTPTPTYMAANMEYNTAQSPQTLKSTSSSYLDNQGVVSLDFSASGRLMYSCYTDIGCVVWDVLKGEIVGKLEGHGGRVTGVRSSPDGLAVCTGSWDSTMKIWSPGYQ
Sequence of yeast Gβγ (Saccharomyces cerevisiae) (P18852 1-107, chain 2 of 2, further chain): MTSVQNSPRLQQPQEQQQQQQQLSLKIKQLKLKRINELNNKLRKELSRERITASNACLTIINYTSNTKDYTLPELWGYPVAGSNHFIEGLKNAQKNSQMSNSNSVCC
T1 sequence (P30680 whole entry): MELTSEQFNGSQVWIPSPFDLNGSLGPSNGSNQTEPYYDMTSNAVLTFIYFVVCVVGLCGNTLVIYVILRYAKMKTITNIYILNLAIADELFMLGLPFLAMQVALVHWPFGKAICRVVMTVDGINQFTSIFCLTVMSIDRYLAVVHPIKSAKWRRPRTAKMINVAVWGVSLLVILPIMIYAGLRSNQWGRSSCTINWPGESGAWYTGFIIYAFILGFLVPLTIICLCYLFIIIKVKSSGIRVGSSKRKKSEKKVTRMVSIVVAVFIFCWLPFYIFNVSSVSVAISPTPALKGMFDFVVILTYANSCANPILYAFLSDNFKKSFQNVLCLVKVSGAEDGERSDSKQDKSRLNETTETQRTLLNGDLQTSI
Sequence of human GRF receptor (human) (Q02643 23-423): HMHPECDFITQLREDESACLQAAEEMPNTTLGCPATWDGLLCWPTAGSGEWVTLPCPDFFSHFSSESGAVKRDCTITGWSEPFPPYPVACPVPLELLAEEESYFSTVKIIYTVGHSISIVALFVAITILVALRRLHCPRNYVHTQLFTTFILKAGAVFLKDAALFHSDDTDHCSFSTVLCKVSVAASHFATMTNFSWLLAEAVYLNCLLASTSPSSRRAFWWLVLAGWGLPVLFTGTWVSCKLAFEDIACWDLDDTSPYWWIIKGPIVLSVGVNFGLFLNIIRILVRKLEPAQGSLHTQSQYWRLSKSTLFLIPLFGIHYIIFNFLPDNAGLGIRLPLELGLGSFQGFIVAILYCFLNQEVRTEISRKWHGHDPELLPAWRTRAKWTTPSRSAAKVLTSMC

“CCK-4 (from UniProt P06307 100-103) (peptide)” gave a growth response, agar plate bioassay, strains LY628 and LY631 with rat CCKB receptor (rat) of 10 µg.

“hGRF (1-29)-NH2 (from UniProt P01286 32-60) (peptide)” displayed a growth response, agar plate bioassay, strain CY990 in assay [1] of 20 nmol. Turning to rat Gαi2 (from UniProt P04897 2-355), the reduction of pheromone-induced FUS1-lacZ signaling, CEN plasmid in assay [2] came out at 16%.

B1: [^125I-tyr^11]-somatostatin 14 (peptide)
chain: AGCKNFFWKTY(125I)TSC
modifications: disulfide 3-14 (inferred); ends not checked
In assay [3], B1 yielded an equilibrium dissociation constant (Kd) of 0.6 nM.

Values taken from patent publication US7148053 (BASF AKTIENGESELLSCHAFT, dated 2006).
